From patent US20080005813A1, “Polypeptide Having Function of Cinnamyl Alcohol Dehydrogenase, Polynucleotide Encoding the Polypeptide and Those Uses” (GENOMINE, INC., priority 2005, published 2008) come the findings set out here.

The target of data set [1] is AtCAD-H protein (cinnamyl alcohol dehydrogenase) (Arabidopsis thaliana, UniProt F4K152). The experiment in a line: Enzyme activity of purified AtCAD-H protein, backward reaction (Lineweaver-Burk). Format: biochemical. The settings on record: substrate coniferyl alcohol, NADPH^+ in place of NADPH, Tris-HCl pH 9.3, 37° C. As for the experimental part: (§1) In order to identify whether the isolated protein has the cinnamyl alcohol dehydrogenase function related to lignin biosynthesis, the enzyme activity in forward reaction was measured using coniferaldehyde as a substrates. Also, the enzyme activity in backward reaction was measured using coniferyl alcohol as a substrates so as to identify whether the enzyme also involves in backward reaction or not.
(§2) The enzyme activities were measured at 405 nm using a microplate reader (Bio-rad Backman Microplate Reader) adjusted at 37° C. according to the method of Mitchell et al. (Mitchell et al. Planta, 208: 31-47, 1998). In […] of the reaction solution for the measurement of the enzyme activity in forward reaction, 100 mM Tris-buffer (Tris-HCl pH 9.3), […], and 2-3 μg of the protein purified in Example 2-2 were contained. The conditions of the reaction solution for the measurement of the enzyme activity in backward reaction is the same as that of the reaction solution of forward reaction, except that 100 mM NADPH^+ was contained in place of 100 mM NADPH. […]
(§3) Meanwhile, the enzyme activity of the purified protein was suitable for Michaelis-Menten kinetics for 100 mM coniferyl alcohol, that is, the substrate of backward reaction. The reaction velocities were measured according to variation of substrate concentration, and represented in a Lineweaver-Burk's plot (see FIG. 2b). […]

Substrate in data set [2]: COc1cc(/C=C/C=O)ccc1O
The experiment in a line: Enzyme activity of purified AtCAD-H protein, forward reaction (Lineweaver-Burk). In kind it is biochemical, Arabidopsis thaliana. The settings on record: other: forward reaction, substrate coniferaldehyde, NADPH, Tris-HCl pH 9.3, 37° C., 405 nm. As for the experimental part: as §1, §2
The enzyme activity of the purified protein was suitable for Michaelis-Menten kinetics for 100 mM coniferaldehyde, that is, the substrate of forward reaction. The reaction velocities were measured according to variation of substrate concentration, and represented in a Lineweaver-Burk's plot (see FIG. 2a).

Substrate in data set [3]: COc1cc(/C=C/CO)ccc1O
The experiment in a line: Enzyme activity of purified AtCAD-H protein, backward reaction (Lineweaver-Burk). Format: biochemical, Arabidopsis thaliana. The settings on record: other: backward reaction, substrate coniferyl alcohol, NADPH^+ in place of NADPH, Tris-HCl pH 9.3, 37° C. As for the experimental part: as §1, §2, §3

As to `COc1cc(/C=C/CO)ccc1O` [coniferyl alcohol], in data set [1], the Vmax is recorded as 0.102.

B1: AtCAD-H protein (cinnamyl alcohol dehydrogenase) (Arabidopsis thaliana) (protein)
chain: MANSGEGKVVCVTGASGYIASWLVKFLLSRGYTVKASVRDPSDPKKTQHLVSLEGAKERLHLFKADLLEQGSFDSAIDGCHGVFHTASPFFNDAKDPQAELIDPAVKGTLNVLNSCAKASSVKRVVVTSSMAAVGYNGKPRTPDVTVDETWFSDPELCEASKMWYVLSKTLAEDAAWKLAKEKGLDIVTINPAMVIGPLLQPTLNTSAAAILNLINGAKTFPNLSFGWVNVKDVANAHIQAFEVPSANGRYCLVERVVHHSEIVNILRELYPNLPLPERCVDENPYVPTYQVSKDKTRSLGIDYIPLKVSIKETVESLKEKGFAQF
Turning to B1, the values for the Km in data set [2] and in data set [3] were 19.8 µM and 374 µM, respectively.
